# Source: publication PMC3903488, “Characterization of a Ginsenoside-Transforming β-glucosidase from Paenibacillus mucilaginosus and Its Application for Enhanced Production of Minor Ginsenoside F2” (PLoS ONE, 2014)
# B1: BglPm (Paenibacillus mucilaginosus 3016) (protein)
# chain: EYIFPQQFMFGSATAAYQVEGNNTNSDFWAEEHAEGSPYQDKSGDAVDHYRLYREDIALMASLGLKAYRFSIEWARIEPAPGQFSLSAIAHYRDVLQACYEHRLTPVVAMHHFSSPQWLMRFGGWGSEEVPERFAKYCEFVFQELGDLIPYVLTFNEVNLPVMLREVFSSIGIIPPVGIDGAAWTAPGWRASAAQLCGTTADRYVTFHMISDEPKIALLMEAHRRARQTIKRLQPNAKVGLSMALSDIQSVPGGEAWAQQKWQQYFEQYLPALEGDDFFGLQNYTREVYGPEGRVTPAADAELTQMKYEYYPEALGQVIRKVAKALTLPIFVTEHGVATDDDERRIEFIRRGLQGVHACLEEGIDVRGYLHWTTFDNFEWNAGYSMRFGLIGVDRTTQERTVKESARYLGRIASTKVL
# notes: expressed in E. coli BL21(DE3)
# Columns and labels:
# [1] = substrate: CC(C)=CCC[C@](C)(O[C@@H]1O[C@H](CO)[C@@H](O)[C@H](O)[C@H]1O)[C@H]1CC[C@]2(C)[C@@H]1[C@H](O)C[C@@H]1[C@@]3(C)CC[C@H](O[C@@H]4O[C@H](CO)[C@@H](O)[C@H](O)[C@H]4O[C@@H]4O[C@H](CO)[C@@H](O)[C@H](O)[C@H]4O)C(C)(C)[C@@H]3CC[C@]12C; experiment: initial velocity, non-linear regression; assay type: biochemical, Paenibacillus mucilaginosus; settings: 0.2-5.0 mM substrate; assay buffer not given
# Excerpt: (§1) initial velocity, non-linear regression on BglPm
# [2] = substrate: CC(C)=CCC[C@](C)(O[C@@H]1O[C@H](CO[C@@H]2O[C@H](CO)[C@@H](O)[C@H](O)[C@H]2O)[C@@H](O)[C@H](O)[C@H]1O)[C@H]1CC[C@]2(C)[C@@H]1[C@H](O)C[C@@H]1[C@@]3(C)CC[C@H](O[C@@H]4O[C@H](CO)[C@@H](O)[C@H](O)[C@H]4O[C@@H]4O[C@H](CO)[C@@H](O)[C@H](O)[C@H]4O)C(C)(C)[C@@H]3CC[C@]12C; experiment: initial velocity, non-linear regression; assay type: biochemical, Paenibacillus mucilaginosus; settings: 0.2-5.0 mM substrate; assay buffer not given
# Excerpt: as §1
# purified protein = substrate: O=[N+]([O-])c1ccc(O[C@@H]2O[C@H](CO)[C@@H](O)[C@H](O)[C@H]2O)cc1; experiment: purified protein; settings: 0.1-10.0 mM substrate, standard activity assay 50 mM sodium phosphate pH 7.5, 37 °C
protein,measurement,setting,value
B1,Km,[1],352 ± 53 µM
same,Vmax,[1],0.484 µmol/min/mg
same,kcat,[1],0.601 ± 0.066 s⁻¹
same,kcat/Km,[1],1780 ± 460 M⁻¹ s⁻¹
same,Km,[2],384 ± 64 µM
same,Vmax,[2],0.369 µmol/min/mg
same,kcat,[2],0.458 ± 0.018 s⁻¹
same,kcat/Km,[2],1230 ± 250 M⁻¹ s⁻¹
same,Km,purified protein,3240 ± 390 µM
same,Vmax,purified protein,10.2 µmol/min/mg
same,kcat,purified protein,8.13 s⁻¹
same,kcat/Km,purified protein,2560 M⁻¹ s⁻¹
